Where two headings read alike, the source gives them in different places.
T1: C-terminal topoisomerase domain of Sulfolobus solfataricus reverse gyrase TopR1 (Sulfolobus solfataricus P2, UniProt Q97ZZ8 605-1242)
T1 sequence (looked up): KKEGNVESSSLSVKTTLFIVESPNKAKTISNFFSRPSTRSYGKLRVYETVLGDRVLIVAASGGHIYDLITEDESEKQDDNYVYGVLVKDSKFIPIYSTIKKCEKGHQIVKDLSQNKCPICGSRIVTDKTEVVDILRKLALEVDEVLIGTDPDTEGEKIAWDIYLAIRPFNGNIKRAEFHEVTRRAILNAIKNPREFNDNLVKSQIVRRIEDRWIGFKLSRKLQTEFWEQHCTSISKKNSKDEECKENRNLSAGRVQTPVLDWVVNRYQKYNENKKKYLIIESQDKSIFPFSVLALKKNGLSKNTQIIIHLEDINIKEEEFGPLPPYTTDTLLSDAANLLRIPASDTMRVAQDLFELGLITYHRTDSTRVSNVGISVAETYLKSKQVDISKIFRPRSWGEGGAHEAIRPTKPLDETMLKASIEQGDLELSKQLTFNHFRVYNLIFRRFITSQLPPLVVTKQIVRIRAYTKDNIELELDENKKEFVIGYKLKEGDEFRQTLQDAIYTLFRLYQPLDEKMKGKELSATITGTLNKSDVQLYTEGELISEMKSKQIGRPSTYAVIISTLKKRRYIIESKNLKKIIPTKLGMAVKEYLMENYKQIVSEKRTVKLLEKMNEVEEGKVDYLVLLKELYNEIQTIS


Assays:
Test in all cases: SPR
[1] = target: C-terminal topoisomerase domain of Sulfolobus solfataricus reverse gyrase TopR1 (Sulfolobus solfataricus P2) (UniProt Q97ZZ8)
[2] = target: T1, C-terminal topoisomerase domain of …
[3] = target: T1, C-terminal topoisomerase domain of …; remark: listed apart in the source
[4] = target: T1, C-terminal topoisomerase domain of …; remark: listed apart in the source

Row | Ka [1] [M⁻¹] | Kd [1] [µM] | koff [1] [s⁻¹] | kon [1] [M⁻¹ s⁻¹] | Ka [2] [M⁻¹] | Kd [2] [µM] | koff [2] [s⁻¹] | kon [2] [M⁻¹ s⁻¹] | Ka [3] [M⁻¹] | Kd [3] [µM] | koff [3] [s⁻¹] | kon [3] [M⁻¹ s⁻¹] | Ka [4] [M⁻¹] | Kd [4] [µM] | koff [4] [s⁻¹] | kon [4] [M⁻¹ s⁻¹] | Molecule
1 | 284 | 3530 | 0.00313 | 0.887 |  |  |  |  |  |  |  |  |  |  |  |  | non-specific DNA-binding protein Smj12 of S. solfataricus (natural protein)
2 |  |  |  |  | 6.32e+06 | 0.158 | 0.00109 | 6900 | 2.87e+06 | 0.349 | 0.00152 | 4350 | 7.59e+06 | 0.132 | 0.00187 | 14200 | N-terminal ATPase (helicase-like) domain of Sulfolobus solfataricus reverse gyrase TopR1 (domain or fragment, Sulfolobus solfataricus P2, UniProt Q97ZZ8 1-607, looked up) MTSINKVPPSIYTRSCPNCGGNISSQRLFNGSVCESCLKDDREFSNLSDLINILSENSNLKNLTQIRDVLEEYKKVEEIFGKLLNNSKPIGPQRSWTIRFLRGESFAIIAPPGLGKTTFGLIMSLYNATRNRKSIIIFPTRTLISQTVDKLAKFSELYSYSPRILYNKQSPTQTENILDQLKSGNFDIFISTNRFVIQNLSELSNIKFDFIFVDDVDAALKSGKSAKAILRLVGFTDEDIQTTMKLLRENIGEEEKFGKIQEIRESRLKDKIVIFSSATISRGNPILSSLMGFRPGSSVIYLRNIYDSYIDLTQTCKGQDFEECTLGTVIKLLKRLNDGTLIFVPIDKGAQYADYLASNLRDHGINVESVASSSISKLEKFERGEVSSLVGVATHYGVLVRGIDLPWRVKYSIFVGIPKFKFKIGEYMHPLALTRLLSLVYLVKNDDKVRGLLSYIRKRLRKISPAALAMLAKDIREGKIDDERLKEAYNLVNEYLKDNEFLKKVSDVGDLVIEGDYILMPDYLTYIQASGRTSRLYGANLTTGLSVLLIDNSRLFELLNKKLNLILDEVKWYSLDIDADKLGQVSLSDISAKITEERESLSKIKKE
